Like-named read-outs stand apart in the source and are kept apart here.
Columns and labels:
[1] = biological target: human LonP1 T803V mutant, amino acids 125 to 959 (human) (UniProt P36776)
[2] = biological target: human mitochondrial Lon protease homolog (LonP1), wild-type, amino acids 125 to 959 (human) (UniProt P36776); test: cryo-EM structure
[3] = biological target: human mitochondrial Lon protease homolog (LonP1), wild-type, amino acids 125 to 959 (human) (UniProt P36776); test: cryo-EM structure; remark: listed apart in the source

Row | ATPase activity relative to wild-type LonP1 [1] [%] | stoichiometry N [2] | stoichiometry N [3] | Substance
1 | 50 | – | – | human LonP1 T803V mutant, amino acids 125 to 959 (from UniProt P36776 125-959) (enzyme)
2 | – | 6 | 6 | human mitochondrial Lon protease homolog (LonP1), wild-type, amino acids 125 to 959 (from UniProt P36776 125-959) (enzyme)

From publication doi:10.1101/2021.07.28.454137
